Data reported in patent US20240166747A1 (GlaxoSmithKline, published 2024).

T1: cynomolgus monkey CD96v2 expressed on cells (cynomolgus monkey, UniProt A0A2K5TWV6 22-569)
T1 construct: also called CHO-cyCD96; Cyno CD96v2
T1 sequence: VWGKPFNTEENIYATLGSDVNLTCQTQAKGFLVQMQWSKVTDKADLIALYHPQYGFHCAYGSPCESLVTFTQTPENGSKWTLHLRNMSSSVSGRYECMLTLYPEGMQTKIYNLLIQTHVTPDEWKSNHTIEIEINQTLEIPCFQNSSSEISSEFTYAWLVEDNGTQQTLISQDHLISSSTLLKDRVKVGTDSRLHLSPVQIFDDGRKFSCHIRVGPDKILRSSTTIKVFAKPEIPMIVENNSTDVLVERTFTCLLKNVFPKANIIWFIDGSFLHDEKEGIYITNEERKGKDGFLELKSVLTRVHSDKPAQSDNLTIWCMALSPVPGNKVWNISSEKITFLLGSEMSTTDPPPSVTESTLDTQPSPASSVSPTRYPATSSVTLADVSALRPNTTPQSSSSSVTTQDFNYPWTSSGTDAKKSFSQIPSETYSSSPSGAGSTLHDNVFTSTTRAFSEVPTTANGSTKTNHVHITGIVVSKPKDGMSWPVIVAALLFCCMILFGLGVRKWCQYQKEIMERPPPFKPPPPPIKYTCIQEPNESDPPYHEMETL

T2: human CD96v1 expressed on HEK cells (human, UniProt P40200 22-585)
T2 construct: whole, on cells
T2 sequence (looked up): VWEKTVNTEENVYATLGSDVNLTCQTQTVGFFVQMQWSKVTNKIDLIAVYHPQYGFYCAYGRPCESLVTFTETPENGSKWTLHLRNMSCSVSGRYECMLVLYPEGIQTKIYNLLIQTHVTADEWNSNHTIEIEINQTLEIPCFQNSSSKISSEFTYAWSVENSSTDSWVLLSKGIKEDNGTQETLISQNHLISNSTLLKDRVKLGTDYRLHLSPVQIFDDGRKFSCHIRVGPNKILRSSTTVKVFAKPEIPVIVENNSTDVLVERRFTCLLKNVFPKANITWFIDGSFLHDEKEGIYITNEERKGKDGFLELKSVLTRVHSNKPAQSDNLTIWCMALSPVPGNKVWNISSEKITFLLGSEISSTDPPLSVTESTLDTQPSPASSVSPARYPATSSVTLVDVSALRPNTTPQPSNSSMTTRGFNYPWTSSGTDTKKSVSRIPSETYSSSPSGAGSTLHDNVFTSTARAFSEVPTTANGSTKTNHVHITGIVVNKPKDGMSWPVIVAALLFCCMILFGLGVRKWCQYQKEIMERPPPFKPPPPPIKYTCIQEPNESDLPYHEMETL

T3: native cynomolgus monkey CD96 on primary cynomolgus monkey T cells (cynomolgus monkey, UniProt A0A2K5TWV6 22-569)
T3 construct: whole, on cells
T3 sequence: T1 sequence

B1: 42Y073-86F08-3 (antibody, V domains shown)
VH: QVQLVQSGAEVKKPGSSVKVSCKASGGTFVNYAISWVRQAPGQGLEWMGGIIPALGTANYAQKFQGRVTITADESTSTAYMELSSLRSEDTAVYYCARGAGYYGDKDPMDVWGQGTTVTVSS
VL: DIQLTQSPSSLSASVGDRVTITCRASQSISSYLNWYQQKPGKAPKLLIYAASSLQSGVPSRFSGSGSGTDFTLTISSLQPEDFATYYCQQVLHTITFGGGTKVEIK
B2: 42Y073-86F08-66 (antibody, human IgG1, kappa)
heavy: not shown
light: DIQLTQSPSSLSASVGDRVTITCRASQSISSYLNWYQQKPGKAPKLLIYAASSLQSGVPSRFSGSGSGTDFTLTISSLQPEDFATYYCQQVLHTITFGGGTKVEIKRTVAAPSVFIFPPSDEQLKSGTASVVCLLNNFYPREAKVQWKVDNALQSGNSQESVTEQDSKDSTYSLSSTLTLSKADYEKHKVYACEVTHQGLSSPVTKSFNRGEC
notes: expressed in CHO or HEK cells; also called GSK 6097608; GSK6097608

Tests used:
[1] = molecular target: T1, cynomolgus monkey CD96v2 expressed on …; test: flow cytometry, CHO cells expressing cynomolgus CD96v2
Method: CHO cells expressing human CD96v2 or cynomolgus monkey CD96v2 were prepared in PBS. The cynomolgus monkey CD96v2 cells were stained with 1 μM violet proliferation dye (VPD450). […] The stained CHO-cyCD96 and unstained CHO-huCD96 cells were combined and added to wells of a 384-well assay plate together with dilutions of test anti-CD96 binding proteins for 1h at 4° C. Cells were further incubated with anti-IgG APC conjugate antibody and the amount of surface bound antibody on each of the CHO-cyCD96 and CHO-huCD96 cells was determined by flow cytometry. Median fluorescence intensity (MFI) values were fitted using a 4 parameter logistic model to calculate the EC50 of binding.

[2] = molecular target: T1, cynomolgus monkey CD96v2 expressed on …; test: flow cytometry on transiently transfected HEK cells (normalised MFI), upper left panel
[3] = molecular target: T2, human CD96v1 expressed on HEK cells; test: as above
[4] = molecular target: T3, native cynomolgus monkey CD96 on …; test: flow cytometry on activated primary cynomolgus monkey T cells (PE median MFI), pooled donor

Binder | EC50 [1] [nM] | EC50 (read off the curve) [2] [nM] | EC50 (read off the curve) [3] [nM] | EC50 (read off the curve) [4] [nM]
B1 | 0.08 | – | – | –
B2 | – | ~8 | ~4 | ~0.06
